Results reported in patent US20260218138A1, “ENGINEERED ACYLTRANSFERASES HAVING ALTERED SUBSTRATE SPECIFICITY” (KEZBIOSOLUTIONS GMBH, priority 2022, published 2026).

B1: Mutant A05: engineered murine acyltransferase, mutation K186E (protein)
chain: NKRPLWFICSGMGTQWRGMGLSLMRLDSFRESILRSDEAVKPLGVKVSDLLLSTDERTFDDIVHAFVSLTAIQIALIDLLTSVGLKPDGIIGHSLGEVACGYADGCLSQREAVLAAYWRGQCIKDAHLPPGSMAAVGLSWEECKQRCPAGVVPACHNSEDTVTISGPQAAVNEFVEQLKQEGVFAEEVRTGGLAFHSYFMEGIAPTLLQALKKVIREPRPRSARWLSTSIPEAQWQSSLARTSSAEYNVNNLVSPVLFQEALWHIPEHAVVLEIAPHALLQAVLKRGVKSSCTIIPLMKRDHKDNLEFFLTNLGKVHLT
B2: Mutant A03: engineered murine acyltransferase, mutations T161A F184A R286A (protein)
chain: NKRPLWFICSGMGTQWRGMGLSLMRLDSFRESILRSDEAVKPLGVKVSDLLLSTDERTFDDIVHAFVSLTAIQIALIDLLTSVGLKPDGIIGHSLGEVACGYADGCLSQREAVLAAYWRGQCIKDAHLPPGSMAAVGLSWEECKQRCPAGVVPACHNSEDAVTISGPQAAVNEFVEQLKQEGVAAKEVRTGGLAFHSYFMEGIAPTLLQALKKVIREPRPRSARWLSTSIPEAQWQSSLARTSSAEYNVNNLVSPVLFQEALWHIPEHAVVLEIAPHALLQAVLKAGVKSSCTIIPLMKRDHKDNLEFFLTNLGKVHLT
B3: Mutant A02: engineered murine acyltransferase, mutation T161Y (protein)
chain: NKRPLWFICSGMGTQWRGMGLSLMRLDSFRESILRSDEAVKPLGVKVSDLLLSTDERTFDDIVHAFVSLTAIQIALIDLLTSVGLKPDGIIGHSLGEVACGYADGCLSQREAVLAAYWRGQCIKDAHLPPGSMAAVGLSWEECKQRCPAGVVPACHNSEDYVTISGPQAAVNEFVEQLKQEGVFAKEVRTGGLAFHSYFMEGIAPTLLQALKKVIREPRPRSARWLSTSIPEAQWQSSLARTSSAEYNVNNLVSPVLFQEALWHIPEHAVVLEIAPHALLQAVLKRGVKSSCTIIPLMKRDHKDNLEFFLTNLGKVHLT
B4: Mutant A15: engineered murine acyltransferase, mutations K186E R300E (protein)
chain: NKRPLWFICSGMGTQWRGMGLSLMRLDSFRESILRSDEAVKPLGVKVSDLLLSTDERTFDDIVHAFVSLTAIQIALIDLLTSVGLKPDGIIGHSLGEVACGYADGCLSQREAVLAAYWRGQCIKDAHLPPGSMAAVGLSWEECKQRCPAGVVPACHNSEDTVTISGPQAAVNEFVEQLKQEGVFAEEVRTGGLAFHSYFMEGIAPTLLQALKKVIREPRPRSARWLSTSIPEAQWQSSLARTSSAEYNVNNLVSPVLFQEALWHIPEHAVVLEIAPHALLQAVLKRGVKSSCTIIPLMKEDHKDNLEFFLTNLGKVHLT
B5: Mutant A10: engineered murine acyltransferase, mutation R300D (protein)
chain: NKRPLWFICSGMGTQWRGMGLSLMRLDSFRESILRSDEAVKPLGVKVSDLLLSTDERTFDDIVHAFVSLTAIQIALIDLLTSVGLKPDGIIGHSLGEVACGYADGCLSQREAVLAAYWRGQCIKDAHLPPGSMAAVGLSWEECKQRCPAGVVPACHNSEDTVTISGPQAAVNEFVEQLKQEGVFAKEVRTGGLAFHSYFMEGIAPTLLQALKKVIREPRPRSARWLSTSIPEAQWQSSLARTSSAEYNVNNLVSPVLFQEALWHIPEHAVVLEIAPHALLQAVLKRGVKSSCTIIPLMKDDHKDNLEFFLTNLGKVHLT
B6: Mutant A11: engineered murine acyltransferase, mutation R300E (protein)
chain: NKRPLWFICSGMGTQWRGMGLSLMRLDSFRESILRSDEAVKPLGVKVSDLLLSTDERTFDDIVHAFVSLTAIQIALIDLLTSVGLKPDGIIGHSLGEVACGYADGCLSQREAVLAAYWRGQCIKDAHLPPGSMAAVGLSWEECKQRCPAGVVPACHNSEDTVTISGPQAAVNEFVEQLKQEGVFAKEVRTGGLAFHSYFMEGIAPTLLQALKKVIREPRPRSARWLSTSIPEAQWQSSLARTSSAEYNVNNLVSPVLFQEALWHIPEHAVVLEIAPHALLQAVLKRGVKSSCTIIPLMKEDHKDNLEFFLTNLGKVHLT
B7: Mutant A07: engineered murine acyltransferase, mutation K186D (protein)
chain: NKRPLWFICSGMGTQWRGMGLSLMRLDSFRESILRSDEAVKPLGVKVSDLLLSTDERTFDDIVHAFVSLTAIQIALIDLLTSVGLKPDGIIGHSLGEVACGYADGCLSQREAVLAAYWRGQCIKDAHLPPGSMAAVGLSWEECKQRCPAGVVPACHNSEDTVTISGPQAAVNEFVEQLKQEGVFADEVRTGGLAFHSYFMEGIAPTLLQALKKVIREPRPRSARWLSTSIPEAQWQSSLARTSSAEYNVNNLVSPVLFQEALWHIPEHAVVLEIAPHALLQAVLKRGVKSSCTIIPLMKRDHKDNLEFFLTNLGKVHLT
B8: Mutant A01: engineered murine acyltransferase, mutation T161A (protein)
chain: NKRPLWFICSGMGTQWRGMGLSLMRLDSFRESILRSDEAVKPLGVKVSDLLLSTDERTFDDIVHAFVSLTAIQIALIDLLTSVGLKPDGIIGHSLGEVACGYADGCLSQREAVLAAYWRGQCIKDAHLPPGSMAAVGLSWEECKQRCPAGVVPACHNSEDAVTISGPQAAVNEFVEQLKQEGVFAKEVRTGGLAFHSYFMEGIAPTLLQALKKVIREPRPRSARWLSTSIPEAQWQSSLARTSSAEYNVNNLVSPVLFQEALWHIPEHAVVLEIAPHALLQAVLKRGVKSSCTIIPLMKRDHKDNLEFFLTNLGKVHLT
B9: Mutant A08: engineered murine acyltransferase, mutation K285D (protein)
chain: NKRPLWFICSGMGTQWRGMGLSLMRLDSFRESILRSDEAVKPLGVKVSDLLLSTDERTFDDIVHAFVSLTAIQIALIDLLTSVGLKPDGIIGHSLGEVACGYADGCLSQREAVLAAYWRGQCIKDAHLPPGSMAAVGLSWEECKQRCPAGVVPACHNSEDTVTISGPQAAVNEFVEQLKQEGVFAKEVRTGGLAFHSYFMEGIAPTLLQALKKVIREPRPRSARWLSTSIPEAQWQSSLARTSSAEYNVNNLVSPVLFQEALWHIPEHAVVLEIAPHALLQAVLDRGVKSSCTIIPLMKRDHKDNLEFFLTNLGKVHLT
B10: Mutant A13: engineered murine acyltransferase, mutations K186D R300E (protein)
chain: NKRPLWFICSGMGTQWRGMGLSLMRLDSFRESILRSDEAVKPLGVKVSDLLLSTDERTFDDIVHAFVSLTAIQIALIDLLTSVGLKPDGIIGHSLGEVACGYADGCLSQREAVLAAYWRGQCIKDAHLPPGSMAAVGLSWEECKQRCPAGVVPACHNSEDTVTISGPQAAVNEFVEQLKQEGVFADEVRTGGLAFHSYFMEGIAPTLLQALKKVIREPRPRSARWLSTSIPEAQWQSSLARTSSAEYNVNNLVSPVLFQEALWHIPEHAVVLEIAPHALLQAVLKRGVKSSCTIIPLMKEDHKDNLEFFLTNLGKVHLT
B11: Mutant A12: engineered murine acyltransferase, mutations K186D R300D (protein)
chain: NKRPLWFICSGMGTQWRGMGLSLMRLDSFRESILRSDEAVKPLGVKVSDLLLSTDERTFDDIVHAFVSLTAIQIALIDLLTSVGLKPDGIIGHSLGEVACGYADGCLSQREAVLAAYWRGQCIKDAHLPPGSMAAVGLSWEECKQRCPAGVVPACHNSEDTVTISGPQAAVNEFVEQLKQEGVFADEVRTGGLAFHSYFMEGIAPTLLQALKKVIREPRPRSARWLSTSIPEAQWQSSLARTSSAEYNVNNLVSPVLFQEALWHIPEHAVVLEIAPHALLQAVLKRGVKSSCTIIPLMKDDHKDNLEFFLTNLGKVHLT
B12: Mutant A04: engineered murine acyltransferase, mutations T161A F184A K186A R286A (protein)
chain: NKRPLWFICSGMGTQWRGMGLSLMRLDSFRESILRSDEAVKPLGVKVSDLLLSTDERTFDDIVHAFVSLTAIQIALIDLLTSVGLKPDGIIGHSLGEVACGYADGCLSQREAVLAAYWRGQCIKDAHLPPGSMAAVGLSWEECKQRCPAGVVPACHNSEDAVTISGPQAAVNEFVEQLKQEGVAAAEVRTGGLAFHSYFMEGIAPTLLQALKKVIREPRPRSARWLSTSIPEAQWQSSLARTSSAEYNVNNLVSPVLFQEALWHIPEHAVVLEIAPHALLQAVLKAGVKSSCTIIPLMKRDHKDNLEFFLTNLGKVHLT
B13: Mutant A14: engineered murine acyltransferase, mutations K186E R300D (protein)
chain: NKRPLWFICSGMGTQWRGMGLSLMRLDSFRESILRSDEAVKPLGVKVSDLLLSTDERTFDDIVHAFVSLTAIQIALIDLLTSVGLKPDGIIGHSLGEVACGYADGCLSQREAVLAAYWRGQCIKDAHLPPGSMAAVGLSWEECKQRCPAGVVPACHNSEDTVTISGPQAAVNEFVEQLKQEGVFAEEVRTGGLAFHSYFMEGIAPTLLQALKKVIREPRPRSARWLSTSIPEAQWQSSLARTSSAEYNVNNLVSPVLFQEALWHIPEHAVVLEIAPHALLQAVLKRGVKSSCTIIPLMKDDHKDNLEFFLTNLGKVHLT

Experiment: Enzyme-coupled assay: transfer of acyl-moieties from MMal-CoA to the ACP
Type: biochemical
Conditions: substrate MMal-CoA, acceptor ACP from murine FAS
Protocol: An enzyme-coupled assay was performed to analyze the transfer of acyl-moieties from CoA to the ACP. Four solutions were prepared as 4× concentrated stocks in the assay buffer. Solution 1 contained the acyltransferase at the concentration range of 0.01 μM-10 μM, depending on the transfer kinetics to achieve good signal to noise ratios. Solution 2 contained the enzyme-coupled system including 8 mM α-ketoglutaric acid, 1.6 mM NAD+, 1.6 mM TPP and 60 mU/100 μL αKGDH. Solution 3 contained the methylmalonyl (MMal)-CoA at concentrations between 0.1 μM and 1,000 μM and solution 4 contained the ACP from murine FAS as a standalone protein at 240 μM. 5 μL of Solutions 1-3 were pipetted into a 384-well Small Volume HiBase Microplates (Greiner Bio-one) and mixed manually. The reactions were started by adding solution 4 with the dispenser system of the microplate reader (ClarioStar, BMG labtech). The reaction progress was recorded using the following settings: 348-20 nm; emission: 476-20 nm; gain: 1500; focal height: 11.9 mm; flashes: 17; orbital averaging: off.

First: B1
Second: B2
The Km of the first is 4.2-fold higher: 14.2 µM for the first, 3.41 µM for the second.

Going from B3 to B4, the Km rises from 38.8 µM to 58.4 µM (1.5-fold).

Going from B5 to B6, the Km falls from 5.06 µM to 3.33 µM (1.5-fold).

Compared with B7, B8 is 13-fold lower in Km: 18.6 µM for the first, 1.47 µM for the second.

Going from B9 to B10, the Km rises from 0.11 µM to 686 µM (6200-fold).

First: B11
Second: B12
The Km of the first is 9.1-fold higher: 66.2 µM for the first, 7.24 µM for the second.

In the case of B13, the Km is reported as 218 µM.

Going from B1 to B2, the kcat falls from 0.101 s⁻¹ to 0.021 s⁻¹ (4.8-fold).

Compared with B3, B4 is 14-fold lower in kcat: 0.428 s⁻¹ for the first, 0.030 s⁻¹ for the second.

B5 and B6 are within 1.5-fold of each other in kcat: 0.582 s⁻¹ for the first, 0.834 s⁻¹ for the second.

First: B7
Second: B8
The kcat of the first is 1.8-fold higher: 0.093 s⁻¹ for the first, 0.051 s⁻¹ for the second.

B9 and B10 are within 1.5-fold of each other in kcat: 0.133 s⁻¹ for the first, 0.190 s⁻¹ for the second.

B11 and B12 are within 1.5-fold of each other in kcat: 0.019 s⁻¹ for the first, 0.013 s⁻¹ for the second.

Molecule B13 has a kcat of 0.051 s⁻¹.
